The record followed here is publication PMC7192616.

Common to all, as to assay: ITC
In general terms: Isothermal titration calorimetry measures the heat released or taken up as one component is titrated into another.

One series deals with T1, mRBM20(513-621) (Mus musculus, UniProt Q3UQS8 513-621).
T1 sequence: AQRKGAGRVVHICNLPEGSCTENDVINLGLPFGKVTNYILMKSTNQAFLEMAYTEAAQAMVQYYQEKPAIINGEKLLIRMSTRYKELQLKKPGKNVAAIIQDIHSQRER

The target in series [1] is T2, mRBM20(513-609) delta-alpha3 (Mus musculus, UniProt Q3UQS8 513-609).
T2 sequence: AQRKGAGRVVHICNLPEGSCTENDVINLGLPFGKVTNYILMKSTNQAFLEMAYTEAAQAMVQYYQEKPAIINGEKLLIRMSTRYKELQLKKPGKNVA

The target of the next series is T3, mRBM20(513-621) N526A (Mus musculus, UniProt Q3UQS8 513-621, N526A).
T3 sequence: T1 sequence with N14A

A further series concerns the target T4, mRBM20(513-621) Q558A (Mus musculus, UniProt Q3UQS8 513-621, Q558A).
T4 sequence: T1 sequence with Q46A

The target of a further series is T5, mRBM20(513-649) +RS (Mus musculus, UniProt Q3UQS8 513-649).
T5 sequence: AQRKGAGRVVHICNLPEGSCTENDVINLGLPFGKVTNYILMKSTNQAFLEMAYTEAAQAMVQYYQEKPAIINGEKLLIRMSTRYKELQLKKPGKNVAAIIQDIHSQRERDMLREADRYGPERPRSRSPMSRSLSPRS

Another series deals with T6, mRBM20(513-621) R595M (Mus musculus, UniProt Q3UQS8 513-621, R595M).
T6 sequence: T1 sequence with R83M

In a further series the target is T7, mRBM20(513-621) H523A (Mus musculus, UniProt Q3UQS8 513-621, H523A).
T7 sequence: T1 sequence with H11A

The target of a further series is T8, mRBM20(513-621) Q577A (Mus musculus, UniProt Q3UQS8 513-621, Q577A).
T8 sequence: T1 sequence with Q65A

The target of the next series is T9, mRBM20(513-621) Y596A (Mus musculus, UniProt Q3UQS8 513-621, Y596A).
T9 sequence: T1 sequence with Y84A

A further series concerns the target T10, mRBM20(513-621) F560A (Mus musculus, UniProt Q3UQS8 513-621, F560A).
T10 sequence: T1 sequence with F48A

Another series addresses T11, mRBM20(513-621) V537I (Mus musculus, UniProt Q3UQS8 513-621, V537I).
T11 sequence: T1 sequence with V25I

Another series concerns the target T12, mRBM20(513-621) R591M (Mus musculus, UniProt Q3UQS8 513-621, R591M).
T12 sequence: T1 sequence with R79M

Numbering of substitutions follows the chain as printed.

B1: AUUUUA (ssRNA)
RNA: AUUUUA
By Kd is commonly meant the constant that tells how readily two partners part at equilibrium. Lower therefore signals a tighter complex. In the series with mRBM20(513-621), B1 showed a Kd of 140 ± 30 µM.

B2: GUCUUA (ssRNA)
RNA: GUCUUA
Take B2: binding in the series with mRBM20(513-621) was characterised by a dissociation constant (Kd) of 4 ± 0.1 µM.

B3: AUCUUG (ssRNA)
RNA: AUCUUG
B3 gave a Kd with mRBM20(513-621) of 4.8 ± 0.1 µM.

B4: vIRES-SL (structured_RNA)
RNA: GGGACCUGGUCUUUCCAGGUCCC
In the series with mRBM20(513-621), B4 came in with a dissociation constant Kd of 8 ± 1 µM.

B5: AUCUUA (ssRNA)
RNA: AUCUUA
Regarding B5, the Kd amounted to 43 ± 1 µM in [1]; 9 ± 1 µM with mRBM20(513-621) N526A; 3.4 ± 0.7 µM in the series with mRBM20(513-621) Q558A; 4.3 ± 0.4 µM with mRBM20(513-649) +RS; 29.3 ± 0.3 µM with mRBM20(513-621) R595M; 5.7 ± 0.2 µM with mRBM20(513-621). For the same molecule, the Kd in the series with mRBM20(513-621) H523A was 67 ± 12 µM; with mRBM20(513-621) Q577A, 6.6 ± 0.8 µM; with mRBM20(513-621) Y596A, 74 ± 13 µM; with mRBM20(513-621) F560A, 156 ± 6 µM; with mRBM20(513-621) V537I, 10.3 ± 0.7 µM; with mRBM20(513-621) R591M it was 12.4 ± 0.6 µM.

B6: ACCUUA (ssRNA)
RNA: ACCUUA
Consider B6, for which the Kd with mRBM20(513-621) turned out to be 13 ± 2 µM.

B7: AUCCUA (ssRNA)
RNA: AUCCUA
B7 had a Kd with mRBM20(513-621) of 210 ± 3 µM.

B8: AUCUCA (ssRNA)
RNA: AUCUCA
For the molecule B8, the Kd in the series with mRBM20(513-621) was 95 ± 1 µM.
